Test results from the supplement of paper PMC9112550, “Optimization of the antimicrobial peptide Bac7 by deep mutational scanning” (BMC Biology, 2022).

Test system: Escherichia coli TOP10
Test: shrunken log2 fold change of peptide-encoding DNA abundance (4.5 h post-induction vs induction); higher = less antimicrobial activity (less host growth inhibition)
Conditions: time post-induction: 4.5 h; library: site-saturation at positions 5, 18, 19, 20
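Further: peptides expressed intracellularly from a pBAD plasmid library in pooled LB shake-flask culture, induced with 0.3% L-arabinose, DNA abundance read by NGS, three biological replicates, DESeq2 with apeglm shrinkage.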

## RRIRERPPRLPRPRPRPLMNPRP
  shrunken log2 fold change: -0.336

## RRIRDRPPRLPRPRPRPATYPRP
  shrunken log2 fold change: -0.141

## RRIRNRPPRLPRPRPRPPCAPRP
  shrunken log2 fold change: -0.0473

## RRIRDRPPRLPRPRPRPFWYPRP
  shrunken log2 fold change: -0.167

## RRIRLRPPRLPRPRPRPLATPRP
  shrunken log2 fold change: 0.38

## RRIRERPPRLPRPRPRPVDVPRP
  shrunken log2 fold change: 0.064

## RRIRNRPPRLPRPRPRPYLPPRP
  shrunken log2 fold change: -0.245

## RRIRWRPPRLPRPRPRPQQEPRP
  shrunken log2 fold change: 0.0149

## RRIRVRPPRLPRPRPRPDICPRP
  shrunken log2 fold change: 0.221

## RRIRSRPPRLPRPRPRPPHRPRP
  shrunken log2 fold change: 0.182

## RRIRVRPPRLPRPRPRPMETPRP
  shrunken log2 fold change: -0.074

## RRIRLRPPRLPRPRPRPFGYPRP
  shrunken log2 fold change: -0.291

## RRIRTRPPRLPRPRPRPCHWPRP
  shrunken log2 fold change: -0.00233

## RRIRPRPPRLPRPRPRPRFWPRP
  shrunken log2 fold change: 0.579

## RRIRLRPPRLPRPRPRPAQFPRP
  shrunken log2 fold change: 0.28

## RRIRKRPPRLPRPRPRPGMQPRP
  shrunken log2 fold change: -0.00459

## RRIRVRPPRLPRPRPRPPTPPRP
  shrunken log2 fold change: 0.548

## RRIRNRPPRLPRPRPRPQDEPRP
  shrunken log2 fold change: 0.00847

## RRIRLRPPRLPRPRPRPSHYPRP
  shrunken log2 fold change: -0.367

## RRIRNRPPRLPRPRPRPYAHPRP
  shrunken log2 fold change: -0.176

## RRIRSRPPRLPRPRPRPSERPRP
  shrunken log2 fold change: 0.245

## RRIRMRPPRLPRPRPRPLKRPRP
  shrunken log2 fold change: 0.0303

## RRIRMRPPRLPRPRPRPMKGPRP
  shrunken log2 fold change: 0.235

## RRIRIRPPRLPRPRPRPQNHPRP
  shrunken log2 fold change: -0.871

## RRIRLRPPRLPRPRPRPIAEPRP
  shrunken log2 fold change: 0.591

## RRIRFRPPRLPRPRPRPGYQPRP
  shrunken log2 fold change: -0.0555

## RRIRHRPPRLPRPRPRPHPEPRP
  shrunken log2 fold change: 0.0129

## RRIRLRPPRLPRPRPRPFSEPRP
  shrunken log2 fold change: -0.0881

## RRIRERPPRLPRPRPRPFPKPRP
  shrunken log2 fold change: 0.459

## RRIRNRPPRLPRPRPRPAEIPRP
  shrunken log2 fold change: -0.107

## RRIRSRPPRLPRPRPRPSQHPRP
  shrunken log2 fold change: -0.24

## RRIRIRPPRLPRPRPRPYKTPRP
  shrunken log2 fold change: -0.0104

## RRIRRRPPRLPRPRPRPSEIPRP
  shrunken log2 fold change: 0.0269

## RRIRQRPPRLPRPRPRPELSPRP
  shrunken log2 fold change: -0.00478

## RRIRERPPRLPRPRPRPFNHPRP
  shrunken log2 fold change: -1.01

## RRIRWRPPRLPRPRPRPHAFPRP
  shrunken log2 fold change: 0.154

## RRIRSRPPRLPRPRPRPLPQPRP
  shrunken log2 fold change: 0.461

## RRIRHRPPRLPRPRPRPVEMPRP
  shrunken log2 fold change: -0.0679

## RRIRLRPPRLPRPRPRPYLNPRP
  shrunken log2 fold change: -1.13

## RRIRKRPPRLPRPRPRPNSCPRP
  shrunken log2 fold change: 0.188

## RRIRLRPPRLPRPRPRPKNSPRP
  shrunken log2 fold change: -0.27

## RRIRRRPPRLPRPRPRPDEGPRP
  shrunken log2 fold change: -0.00319

## RRIRGRPPRLPRPRPRPNCFPRP
  shrunken log2 fold change: 0.268

## RRIRPRPPRLPRPRPRPCRIPRP
  shrunken log2 fold change: -0.00277

## RRIRSRPPRLPRPRPRPTADPRP
  shrunken log2 fold change: 0.275

## RRIRFRPPRLPRPRPRPDMEPRP
  shrunken log2 fold change: -0.16

## RRIRLRPPRLPRPRPRPWGWPRP
  shrunken log2 fold change: 0.264

## RRIRDRPPRLPRPRPRPLGEPRP
  shrunken log2 fold change: 0.147

## RRIRDRPPRLPRPRPRPALKPRP
  shrunken log2 fold change: 0.407

## RRIRFRPPRLPRPRPRPNCMPRP
  shrunken log2 fold change: -0.143

## RRIRTRPPRLPRPRPRPYMGPRP
  shrunken log2 fold change: -1.93

## RRIRWRPPRLPRPRPRPRTNPRP
  shrunken log2 fold change: 0.0699

## RRIRRRPPRLPRPRPRPNMQPRP
  shrunken log2 fold change: 0.183

## RRIRFRPPRLPRPRPRPQVTPRP
  shrunken log2 fold change: -0.367

## RRIRCRPPRLPRPRPRPDSWPRP
  shrunken log2 fold change: -0.115

## RRIRYRPPRLPRPRPRPLEFPRP
  shrunken log2 fold change: -0.89

## RRIRKRPPRLPRPRPRPLKFPRP
  shrunken log2 fold change: -0.118

## RRIRGRPPRLPRPRPRPFPWPRP
  shrunken log2 fold change: 0.383

## RRIRPRPPRLPRPRPRPIGDPRP
  shrunken log2 fold change: -0.0205

## RRIRGRPPRLPRPRPRPVQDPRP
  shrunken log2 fold change: 0.197

## RRIRHRPPRLPRPRPRPLLKPRP
  shrunken log2 fold change: -0.013

## RRIRQRPPRLPRPRPRPEGTPRP
  shrunken log2 fold change: 0.231

## RRIRTRPPRLPRPRPRPLKSPRP
  shrunken log2 fold change: -0.0242

## RRIRARPPRLPRPRPRPCRKPRP
  shrunken log2 fold change: -0.232

## RRIRNRPPRLPRPRPRPPGNPRP
  shrunken log2 fold change: 0.532

## RRIRLRPPRLPRPRPRPVDWPRP
  shrunken log2 fold change: 0.252

## RRIRTRPPRLPRPRPRPVRKPRP
  shrunken log2 fold change: 0.00119

## RRIRERPPRLPRPRPRPRSHPRP
  shrunken log2 fold change: -0.349

## RRIRMRPPRLPRPRPRPDKTPRP
  shrunken log2 fold change: 0.00408

## RRIRQRPPRLPRPRPRPPCAPRP
  shrunken log2 fold change: 0.293

## RRIRCRPPRLPRPRPRPNSWPRP
  shrunken log2 fold change: 0.0889

## RRIRARPPRLPRPRPRPMWFPRP
  shrunken log2 fold change: 0.0716

## RRIRFRPPRLPRPRPRPVTVPRP
  shrunken log2 fold change: -0.264

## RRIRKRPPRLPRPRPRPATYPRP
  shrunken log2 fold change: 0.0782

## RRIRVRPPRLPRPRPRPCAQPRP
  shrunken log2 fold change: -0.186

## RRIRMRPPRLPRPRPRPNCIPRP
  shrunken log2 fold change: 0.11

## RRIRKRPPRLPRPRPRPCACPRP
  shrunken log2 fold change: 0.0293

## RRIRNRPPRLPRPRPRPMAFPRP
  shrunken log2 fold change: -0.192

## RRIRWRPPRLPRPRPRPYSEPRP
  shrunken log2 fold change: -0.0145

## RRIRIRPPRLPRPRPRPARLPRP
  shrunken log2 fold change: -0.0547

## RRIRYRPPRLPRPRPRPYHEPRP
  shrunken log2 fold change: -0.194

## RRIRRRPPRLPRPRPRPPLMPRP
  shrunken log2 fold change: 0.708

## RRIRHRPPRLPRPRPRPAYKPRP
  shrunken log2 fold change: -0.102

## RRIRCRPPRLPRPRPRPYWFPRP
  shrunken log2 fold change: -0.74

## RRIRVRPPRLPRPRPRPGDNPRP
  shrunken log2 fold change: 0.174

## RRIRRRPPRLPRPRPRPVHHPRP
  shrunken log2 fold change: -0.468

## RRIRTRPPRLPRPRPRPRFHPRP
  shrunken log2 fold change: 0.192

## RRIRGRPPRLPRPRPRPMQGPRP
  shrunken log2 fold change: 0.0711

## RRIRVRPPRLPRPRPRPSKSPRP
  shrunken log2 fold change: -0.172

## RRIRHRPPRLPRPRPRPMWGPRP
  shrunken log2 fold change: -0.234

## RRIRRRPPRLPRPRPRPRDIPRP
  shrunken log2 fold change: 0.0666
